Here are results for one protein from publication PMC7282669, “The hydrophobic effect characterises the thermodynamic signature of amyloid fibril growth” (PLoS Computational Biology, 2020).

This data set concerns the molecule itself. Briefly: ITC; crystals injected into water; heat of crystal dissolution taken as the negative of the heat of crystal growth; two temperatures. A general note: In ITC the heat of successive injections is recorded.

B1: GNNQQNY, a small fragment of the Sup35 protein (peptide)
peptide: GNNQQNY
notes: fragment of the Sup35 protein; Forms amyloid-like microcrystals; also called GNNQQNY peptide
For B1, the binding result is reported as “binds”.
